Results as given in patent publication US10456465B2, “Compositions, kits, and methods for the diagnosis prognosis, monitoring, treatment and modulation of post-transplant lymphoproliferative disorders and hypoxia associated angiogenesis disorders using galectin-1” (Dana-Farber Cancer Institute, Inc., priority 2009, dated 2019).
Entries after “also recorded” stand apart in the source; their conditions may differ.

Key:
[1] = target: rGal1 (Homo sapiens, UniProt P09382); experiment: Anti-Gal1 mAb neutralization of rGal1-induced killing of EBV-specific CTLs; assay type: cell-based; settings: rGal1 1.25, 2.5 or 5 μM pre-incubated with mAb; 4 h; 7AAD
Method: After informed consent, 40-60 ml of peripheral blood from healthy donors was used to generate both EBV-transformed LCLs and EBV-specific CTLs (Straathof et al. (2005) Blood 105:1898-904). In brief, 5×10^6 peripheral blood mononuclear cells (PBMCs) were incubated with concentrated culture supernatant from the marmoset B-lymphoblastoid cell line, B95-8, in the presence of 1 μg/ml cyclosporin A (Sandoz, Vienna, Austria) to establish a LCL. Subsequently, PBMCs (2×10^6 per well of a 24-well plate) were stimulated with irradiated LCLs (at 4,000 rads) at an effector-stimulator (E/S) ratio of 40:1. After 10 days, viable cells were restimulated with irradiated LCLs (at 4:1 E/S ratio). CTLs were expanded by weekly stimulations with autologous irradiated LCLs (at 4:1 E/S ratio) in the presence of recombinant human interleukin-2 (rhIL-2, Proleukin; Chiron Emeryville, Calif.) at concentration of 40 U/ml. After 5 cycles of stimulation, CTLs were tested for EBV specificity and cryopreserved. […]
CTLs were thawed in AIM-V media (Invitrogen) containing 10 U/ml of DNAse I (Roche Applied Science, Indianapolis, Ind.) and rested in culture overnight. […] After 4 hours, the viability of EBV-specific CD8^+ T cells was measured using 7AAD and APC-Cy7-labelled CD8 (BD Biosciences, San Jose, Calif.).

[2] = test system: B16 tumors; experiment: Syngeneic B16 melanoma model; assay type: in vivo, mouse
Method: Wild-type KS cells or shRNA clones (5×10^6 cells) were injected subcutaneously into 6- to 8-week old nude mice. Wild-type B16 cells or shRNA clones (2×10^5 cells) were injected into 6- to 8-week old B6 or B6/Rag^−/− mice and tumor development was monitored as described in Rubinstein et al. (2004) Cancer Cell 5, 241-251. Treatments with 8F4F8G7 mAb or control isotype (2.5, 7.5 or 15 mg/kg; i.p. injections every three days) were initiated when tumors reached 100 mm^3. Mice were sacrificed when tumors reached a volume greater than 2 cm^3. At 2 weeks after tumor challenge, lymph node cells (5×10^5 cells/well) were restimulated for 72 h with 1×10^4 irradiated (4,000 rads) B16 cells and were analyzed for proliferation and cytokine production. For adoptive transfer, splenic T cells (5×10^6) from tumor-bearing mice were labeled with CFSE (Molecular Probes) and injected through the tail vein into tumor-bearing recipient mice treated with 8F4F8G7 or control mAb. In related studies, fluorescent beads (3 μm; BD Biosciences), rather than splenic T cells, were injected into tumor-bearing animals treated with 8F4F8G7 or control antibody. CFSE^+ cells or PerCP-labeled beads were analyzed after 24 h or 15 min respectively by flow cytometry in tumor parenchyma and spleen.
For immunostaining, mice were anesthetized and cardiac-perfused with PBS and 4% paraformaldehyde and tissues were embedded in OCT. To visualize the vasculature, mice were intravenously injected with FITC-conjugated Griffonia simplicifolia Lectin-1 (GLS-1B4, Vector) prior to heart perfusion and fixation. Pericyte maturation was assessed using antibodies specific for αSMA (1A4; Dako), desmin (D33; Dako), PDGFRβ (APB5; Biolegend) and Rgs5 (HPA001821; Prestige Sigma). The fraction of pericyte coverage was calculated as the ratio of αSMA area to the FITC-GLS-1B4 or CD31 stained area using a specific anti-CD31 antibody (Mec13.3; BD Biosciences). For immunoperoxidase staining, paraffin-embedded human tumor sections were incubated with anti-CD31 (JC/70A; Dako) and anti-Gal1 antibodies as described in Juszczynski et al. (2007) Proc Natl Acad Sci USA 104, 13134-13139 using the Vectastain Elite ABC kit (Vector). Studies with patient biopsies were subjected to Institutional Review Boards approval (CEMIC and IBYME). Hypoxia was detected after injection of pimonidazole hydrochloride for 30 min following immunostaining with Hypoxyprobe-1 plus kit (Natural Pharmacia International).

[3] = target: recombinant human Gal1 (rGal1) (Homo sapiens, UniProt P09382); experiment: Anti-Gal1 mAb neutralization of rGal1-induced apoptosis of activated T cells; assay type: cell-based; settings: 10 μM rGal1 pre-incubated with 5 μM mAb; 16 h; Annexin V-FITC/PI
Method: Normal T cells were purified and activated with a combination of αCD3 (0.1 μg/ml) and αCD28 (0.5 μg/ml) as previously described (Juszczynski et al. (2007) Proc Natl Acad Sci USA 104:13134-9). Ten μM recombinant human Gal1 (rGal1) was pre-incubated with 5 μM anti-Gal1 mAb 8F4F8G7 or isotype control IgG2b2, (Rockland Immunochemicals Inc., Boyertown, Pa.) or medium alone at 37° C. for 30 min. Thereafter, rGal1+/− antibody was added to in vitro αCD3 and αCD28 activated T cells. After 16 h treatment, cells were harvested for apoptosis analysis using Annexin V-FITC and PI (BD Biosciences, San Jose, Calif.) flow cytometry as previously described (Juszczynski et al. (2007) Proc Natl Acad Sci USA 104:13134-9).

Sequence of rGal1 (P09382 whole entry): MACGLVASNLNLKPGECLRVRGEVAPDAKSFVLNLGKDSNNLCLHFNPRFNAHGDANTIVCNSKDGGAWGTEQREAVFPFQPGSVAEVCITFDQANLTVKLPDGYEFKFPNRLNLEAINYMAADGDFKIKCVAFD
Sequence of recombinant human Gal1 (rGal1) (P09382 whole entry): as above

B1: anti-Gal1 monoclonal antibody 8F4F8G7 (antibody, V domains shown)
VH: EVQLQQSVAEFVRPGASVRLSCTASGFNIKNTYIHWVRQRPEQGLEWIGKIDPANGNTKYVPEFQGKATMTADTSSNTVYLHLSSLTSEDTAIYYCVDGYYGWYFAVWGTGTTVTVSS
VL: QAVVTQESALTTSPGETVTLTCRSSTGAVTTSNYANWVQEKPDHLFTGLIGATNNRAPGVPARFSGSLIGDKAVLTITGAQTEDEAIYFCALWYRNHFIFGSGTKVTVL
notes: Murine hybridoma mAb (deposit PTA-10535), lambda light chain; also called 14-19 8F4-F8-G7; clone 8F4.8F.67
With B1 the “rGal1-mediated apoptosis of EBV-specific CD8+ T cells” value [1] was “almost completely abrogated; also recorded: dramatically reduced”, the “microvessel density of tumors” value ([2]; 30 days post-inoculation) was “only a slight decrease” and the “frequency of CD34+ cells” value ([2]; day 20) was “No significant changes”. For the same molecule, the decreased tumor burden ([2]; immunocompetent mice, established B16 tumors, day 20) was ~86%, the anti-tumor effect ([2]; immunodeficient B6/Rag−/− mice) was “only a partial anti-tumor effect” and the coverage by pericytes ([2]; vs isotype control) was “greater coverage”. For the same molecule, the “dilated and tortuous vessels” value ([2]; vs isotype control) was “fewer”, the pericyte phenotype ([2]; vs isotype control) was “more mature phenotype” and the “tumor hypoxia (pimonidazole adducts)” value ([2]; vs isotype control) was “markedly alleviated”. For the same molecule, the “tumor vasculature: vessel diameter and distribution” value ([2]; vs isotype control, lectin-perfused vessels) was “resembled normal vascular networks”, the expression of desmin ([2]; vs isotype-treated tumors) was “no significant variations” and the “pericyte expression of platelet-derived growth factor receptor (PDGFR)β” value ([2]; vs isotype-treated tumors) was “lower expression”. For the same molecule, the “pericyte expression of regulator of G-protein signaling 5 (Rgs5)” value ([2]; vs isotype-treated tumors) was “lower expression”, the “pericyte expression of α-smooth muscle actin (αSMA)” value ([2]; vs isotype-treated tumors) was “higher expression” and the “rGal1-induced apoptosis of αCD3/αCD28-activated T cells” value [3] was “almost completely inhibited”.
